Literature values in publication PMC4987277.

Biological target: C3d C3d (Homo sapiens) (UniProt P01024)
Sequence (P01024 1002-1303): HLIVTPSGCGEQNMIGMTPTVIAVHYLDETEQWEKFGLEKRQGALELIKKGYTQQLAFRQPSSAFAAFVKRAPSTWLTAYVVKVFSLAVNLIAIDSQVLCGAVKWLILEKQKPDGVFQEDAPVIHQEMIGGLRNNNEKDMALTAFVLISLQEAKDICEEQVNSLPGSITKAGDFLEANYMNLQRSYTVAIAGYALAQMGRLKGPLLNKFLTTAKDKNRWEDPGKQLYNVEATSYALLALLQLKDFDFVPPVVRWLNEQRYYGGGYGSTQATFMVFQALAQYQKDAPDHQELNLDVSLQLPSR

Sequence of CR2 (P20023 21-971): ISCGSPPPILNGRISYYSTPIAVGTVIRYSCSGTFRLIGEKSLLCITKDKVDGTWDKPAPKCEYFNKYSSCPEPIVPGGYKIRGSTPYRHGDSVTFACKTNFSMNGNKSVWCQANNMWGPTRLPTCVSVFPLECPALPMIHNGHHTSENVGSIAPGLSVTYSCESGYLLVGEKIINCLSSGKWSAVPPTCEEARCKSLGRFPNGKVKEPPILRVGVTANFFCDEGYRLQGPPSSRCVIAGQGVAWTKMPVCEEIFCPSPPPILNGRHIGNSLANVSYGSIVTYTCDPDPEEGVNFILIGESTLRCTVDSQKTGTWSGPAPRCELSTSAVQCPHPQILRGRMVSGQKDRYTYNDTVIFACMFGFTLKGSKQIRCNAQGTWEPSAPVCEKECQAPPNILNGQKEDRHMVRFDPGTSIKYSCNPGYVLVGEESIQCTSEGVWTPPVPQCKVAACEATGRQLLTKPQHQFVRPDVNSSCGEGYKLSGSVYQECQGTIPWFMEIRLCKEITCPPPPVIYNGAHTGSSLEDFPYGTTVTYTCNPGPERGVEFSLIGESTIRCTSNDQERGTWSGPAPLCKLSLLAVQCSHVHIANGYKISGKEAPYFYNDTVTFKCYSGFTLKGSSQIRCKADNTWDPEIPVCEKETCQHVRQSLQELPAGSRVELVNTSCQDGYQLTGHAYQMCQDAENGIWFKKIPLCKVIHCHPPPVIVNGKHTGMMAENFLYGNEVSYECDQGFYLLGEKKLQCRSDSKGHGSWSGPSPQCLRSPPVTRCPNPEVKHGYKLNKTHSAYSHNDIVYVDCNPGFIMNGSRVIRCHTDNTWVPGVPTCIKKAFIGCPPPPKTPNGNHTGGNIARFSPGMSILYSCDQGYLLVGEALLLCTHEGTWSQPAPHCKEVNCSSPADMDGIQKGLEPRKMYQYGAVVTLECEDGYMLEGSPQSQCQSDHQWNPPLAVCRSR

Kd: 500 nM
Substance: CR2 (from UniProt P20023)
